These results are taken from paper PMC4434323.

The target in data set [1] is T1, ham-2 (C07A12.1) (Caenorhabditis elegans) (UniProt H2KYH4).
T1 sequence: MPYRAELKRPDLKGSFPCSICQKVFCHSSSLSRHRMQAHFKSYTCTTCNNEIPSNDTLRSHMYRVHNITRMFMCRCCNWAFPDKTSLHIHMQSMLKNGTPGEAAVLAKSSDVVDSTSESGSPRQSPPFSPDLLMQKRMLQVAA

Data set [2] deals with T2, ztf-29 (Y66D12A.12) (Caenorhabditis elegans) (UniProt Q95Q03).
T2 sequence: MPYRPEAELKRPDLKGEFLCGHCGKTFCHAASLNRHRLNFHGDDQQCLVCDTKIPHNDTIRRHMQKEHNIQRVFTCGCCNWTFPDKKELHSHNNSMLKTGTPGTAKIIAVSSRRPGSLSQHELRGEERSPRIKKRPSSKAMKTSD

The target of data set [3] is T3, B0310.2 (B0310.2) (Caenorhabditis elegans) (UniProt Q10938).
T3 sequence: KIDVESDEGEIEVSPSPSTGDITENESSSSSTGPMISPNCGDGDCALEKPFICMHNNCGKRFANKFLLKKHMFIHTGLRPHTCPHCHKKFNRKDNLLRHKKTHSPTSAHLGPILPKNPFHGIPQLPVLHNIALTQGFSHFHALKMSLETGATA

Data set [4] has as its target T4, die-1 (C18D1.1) (Caenorhabditis elegans) (UniProt A0A131MCR4).
T4 sequence: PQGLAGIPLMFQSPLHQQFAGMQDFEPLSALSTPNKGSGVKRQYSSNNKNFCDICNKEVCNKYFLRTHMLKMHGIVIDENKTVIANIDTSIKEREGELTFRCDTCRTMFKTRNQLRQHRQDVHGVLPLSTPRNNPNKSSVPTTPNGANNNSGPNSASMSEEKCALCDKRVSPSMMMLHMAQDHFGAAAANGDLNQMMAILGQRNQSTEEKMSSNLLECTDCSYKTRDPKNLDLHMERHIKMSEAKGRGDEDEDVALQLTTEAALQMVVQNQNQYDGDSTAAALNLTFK

For data set [5], the target named is ZC328.2 (ZC328.2) (Caenorhabditis elegans) (UniProt O02050).
In data set [6] the target is egrh-1 (C27C12.2) (Caenorhabditis elegans) (UniProt Q18250).
For data set [7], the target named is T5, ztf-19 (T27B1.2) (Caenorhabditis elegans) (UniProt Q22829).
T5 sequence: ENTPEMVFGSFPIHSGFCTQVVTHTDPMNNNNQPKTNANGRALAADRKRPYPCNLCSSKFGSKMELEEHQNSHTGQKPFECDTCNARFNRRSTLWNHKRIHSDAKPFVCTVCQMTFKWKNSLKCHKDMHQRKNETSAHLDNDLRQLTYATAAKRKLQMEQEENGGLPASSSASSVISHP

In data set [8] the target is T6, atf-5 (T04C10.4) (Caenorhabditis elegans) (UniProt Q22156).
T6 sequence: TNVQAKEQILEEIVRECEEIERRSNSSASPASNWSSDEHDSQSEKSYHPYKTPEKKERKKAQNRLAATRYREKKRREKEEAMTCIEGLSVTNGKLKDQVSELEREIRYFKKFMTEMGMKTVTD

Data set [9] deals with atf-7 (C07G2.2) (Caenorhabditis elegans) (UniProt Q86MD3).
The target of data set [10] is T7, zip-3 (W07G1.3) (Caenorhabditis elegans) (UniProt Q9XUK2).
T7 sequence: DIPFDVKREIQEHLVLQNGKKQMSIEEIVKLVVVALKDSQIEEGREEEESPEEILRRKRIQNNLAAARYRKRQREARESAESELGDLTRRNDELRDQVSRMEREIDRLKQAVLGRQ

Data set [11] has as its target T8, ZK337.2 (ZK337.2) (Caenorhabditis elegans) (UniProt O46016).
T8 sequence: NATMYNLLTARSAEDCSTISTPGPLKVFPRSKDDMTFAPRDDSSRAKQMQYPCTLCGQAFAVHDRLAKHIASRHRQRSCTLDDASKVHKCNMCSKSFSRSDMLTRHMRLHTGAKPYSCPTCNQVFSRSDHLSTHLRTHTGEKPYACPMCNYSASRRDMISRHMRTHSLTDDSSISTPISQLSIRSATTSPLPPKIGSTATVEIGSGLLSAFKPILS

The target in data set [12] is T9, skn-1 (T19E7.2) (Caenorhabditis elegans) (UniProt P34707).
T9 sequence: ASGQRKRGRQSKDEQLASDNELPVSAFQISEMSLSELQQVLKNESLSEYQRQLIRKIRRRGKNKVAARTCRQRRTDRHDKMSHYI

Sequence of egrh-1 (C27C12.2) (Caenorhabditis elegans) (Q18250 324-461): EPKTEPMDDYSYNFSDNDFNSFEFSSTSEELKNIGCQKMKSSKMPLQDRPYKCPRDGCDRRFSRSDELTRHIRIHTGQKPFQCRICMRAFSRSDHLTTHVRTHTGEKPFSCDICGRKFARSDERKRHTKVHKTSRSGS
Sequence of ZC328.2 (ZC328.2) (Caenorhabditis elegans) (O02050 entry or part of it): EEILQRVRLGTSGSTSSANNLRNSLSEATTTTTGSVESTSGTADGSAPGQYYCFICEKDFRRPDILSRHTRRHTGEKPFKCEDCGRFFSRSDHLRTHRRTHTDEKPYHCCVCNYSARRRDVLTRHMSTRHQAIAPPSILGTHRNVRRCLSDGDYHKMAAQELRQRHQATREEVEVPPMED
Sequence of atf-7 (C07G2.2) (Caenorhabditis elegans) (Q86MD3 339-508): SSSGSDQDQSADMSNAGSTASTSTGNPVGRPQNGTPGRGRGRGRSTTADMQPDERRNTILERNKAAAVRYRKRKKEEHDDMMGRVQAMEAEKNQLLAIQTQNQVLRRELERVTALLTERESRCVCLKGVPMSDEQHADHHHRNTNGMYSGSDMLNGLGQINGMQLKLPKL

As to “AAAGCTTA (double strand) [8-mer AAAGCTTA]”, the figures for the binding signal (PBM E-score (-0.5 to 0.5)) in data set [1] and in data set [2] were 0.481 and 0.485, respectively.
As to “AACCTCAA (double strand) [8-mer AACCTCAA]”, the binding signal (PBM E-score (-0.5 to 0.5)) in data set [3] amounted to 0.483.
In turn, “AAGCTAGC (double strand) [8-mer AAGCTAGC]” had a binding signal (PBM E-score (-0.5 to 0.5)) in data set [1] of 0.476.
“AAGCTTAC (double strand) [8-mer AAGCTTAC]”: the figures for the binding signal (PBM E-score (-0.5 to 0.5)) in [1] and in data set [2] were 0.489 and 0.485, respectively.
Regarding “AAGCTTAT (double strand) [8-mer AAGCTTAT]”, the binding signal (PBM E-score (-0.5 to 0.5)) was found to be 0.487 in [1] and 0.488 in [2].
Take “AATTTAAA (double strand) [8-mer AATTTAAA]”: in data set [4], the binding signal (PBM E-score (-0.5 to 0.5)) stood at 0.497.
Consider “ACCCCCGC (double strand) [8-mer ACCCCCGC]”, for which the figures for the binding signal (PBM E-score (-0.5 to 0.5)) in data set [5] and in data set [6] were 0.492 and 0.485, respectively.
In data set [3], “ACCTCAAA (double strand) [8-mer ACCTCAAA]” had a binding signal (PBM E-score (-0.5 to 0.5)) of 0.481.
Same read-out and setting: to “ACCTCAAT (double strand) [8-mer ACCTCAAT]” belongs 0.49; to “ACCTCACT (double strand) [8-mer ACCTCACT]”, 0.478.
“ACTTTAAA (double strand) [8-mer ACTTTAAA]” registered a binding signal (PBM E-score (-0.5 to 0.5)) in data set [4] of 0.493.
For the sequence “AGCTAGCT (double strand) [8-mer AGCTAGCT]”, the binding signal (PBM E-score (-0.5 to 0.5)) in data set [1] is 0.488.
With “AGGGGGCG (double strand) [8-mer AGGGGGCG]”, the binding signal (PBM E-score (-0.5 to 0.5)) in [6] turned out to be 0.486.
On to “AGTTTAAA (double strand) [8-mer AGTTTAAA]”, for which the binding signal (PBM E-score (-0.5 to 0.5)) in [4] is 0.49; in data set [7] it was 0.495.
Turning to “ATACCTCA (double strand) [8-mer ATACCTCA]”, the binding signal (PBM E-score (-0.5 to 0.5)) in data set [3] came out at 0.485.
In turn, “ATCCCTCA (double strand) [8-mer ATCCCTCA]” showed a binding signal (PBM E-score (-0.5 to 0.5)) in data set [3] of 0.482.
As to “ATGACGTA (double strand) [8-mer ATGACGTA]”, the binding signal (PBM E-score (-0.5 to 0.5)) in data set [8] came out at 0.459; in data set [9], 0.498; in data set [10], 0.49.
For the sequence “ATGACGTC (double strand) [8-mer ATGACGTC]”, the binding signal (PBM E-score (-0.5 to 0.5)) in [8] worked out at 0.468; in data set [9], 0.497; in [10] it was 0.493.
Regarding “ATGAGGGA (double strand) [8-mer ATGAGGGA]”, in [3], the binding signal (PBM E-score (-0.5 to 0.5)) stood at 0.478.
Still for that read-out and setting: in the case of “ATGAGGTA (double strand) [8-mer ATGAGGTA]” it was 0.484.
Regarding “ATGCTAAT (double strand) [8-mer ATGCTAAT]”, the binding signal (PBM E-score (-0.5 to 0.5)) in data set [1] was 0.478.
In the case of “ATGCTTAA (double strand) [8-mer ATGCTTAA]”, the binding signal (PBM E-score (-0.5 to 0.5)) in data set [1] was 0.48.
The sequence “ATTTAAAA (double strand) [8-mer ATTTAAAA]” showed a binding signal (PBM E-score (-0.5 to 0.5)) in [4] of 0.481.
The same measure, in the same setting: to “ATTTAAAC (double strand) [8-mer ATTTAAAC]” belongs 0.484.
Same read-out and setting: to “ATTTTAAA (double strand) [8-mer ATTTTAAA]” belongs 0.496.
Regarding “CCCACGCA (double strand) [8-mer CCCACGCA]”, the figures for the binding signal (PBM E-score (-0.5 to 0.5)) in [5], in [11] and in [6] were 0.497, 0.488 and 0.496, respectively.
For the sequence “CCCACGCG (double strand) [8-mer CCCACGCG]”, the values for the binding signal (PBM E-score (-0.5 to 0.5)) in data set [5] and in [6] were 0.49 and 0.486, respectively.
In [6], “CCCCCACA (double strand) [8-mer CCCCCACA]” showed a binding signal (PBM E-score (-0.5 to 0.5)) of 0.489.
With “CCCCCGCA (double strand) [8-mer CCCCCGCA]”, the binding signal (PBM E-score (-0.5 to 0.5)) came to 0.497 in [5], 0.494 in [11] and 0.495 in data set [6].
Take “CCCCCGCG (double strand) [8-mer CCCCCGCG]”: the binding signal (PBM E-score (-0.5 to 0.5)) in data set [5] was found to be 0.488; in data set [6], 0.485.
Consider “CCTCAATC (double strand) [8-mer CCTCAATC]”, for which the binding signal (PBM E-score (-0.5 to 0.5)) in data set [3] turned out to be 0.477.
With “CGCCCACG (double strand) [8-mer CGCCCACG]”, the results for the binding signal (PBM E-score (-0.5 to 0.5)) in data set [11] and in data set [6] were 0.492 and 0.495, respectively.
In the case of “CGCCCCCA (double strand) [8-mer CGCCCCCA]”, the binding signal (PBM E-score (-0.5 to 0.5)) worked out at 0.494 in data set [11] and 0.493 in data set [6].
As to “CGTCATCA (double strand) [8-mer CGTCATCA]”, the binding signal (PBM E-score (-0.5 to 0.5)) in [12] was determined as 0.492; in data set [10] it was 0.489.
Sequence “CTACCTCA (double strand) [8-mer CTACCTCA]” yielded a binding signal (PBM E-score (-0.5 to 0.5)) in [3] of 0.484.
In the case of “CTTTTAAA (double strand) [8-mer CTTTTAAA]”, the binding signal (PBM E-score (-0.5 to 0.5)) in [4] was 0.47.
In the case of “GAACCTCA (double strand) [8-mer GAACCTCA]”, the binding signal (PBM E-score (-0.5 to 0.5)) in data set [3] was determined as 0.48.
“GATTTAAA (double strand) [8-mer GATTTAAA]”: the binding signal (PBM E-score (-0.5 to 0.5)) in data set [4] was determined as 0.477.
Consider “GCCCACGC (double strand) [8-mer GCCCACGC]”, for which the binding signal (PBM E-score (-0.5 to 0.5)) in data set [5] amounted to 0.485; in data set [6], 0.495.
In data set [6], “GCCCCCAC (double strand) [8-mer GCCCCCAC]” showed a binding signal (PBM E-score (-0.5 to 0.5)) of 0.486.
In turn, “GGTTTAAA (double strand) [8-mer GGTTTAAA]” returned a binding signal (PBM E-score (-0.5 to 0.5)) in [4] of 0.484.
In data set [3], “GTGAGGGA (double strand) [8-mer GTGAGGGA]” had a binding signal (PBM E-score (-0.5 to 0.5)) of 0.478.
Sequence “GTGAGGTA (double strand) [8-mer GTGAGGTA]” displayed a binding signal (PBM E-score (-0.5 to 0.5)) in data set [3] of 0.485.
On to “GTTTAAAA (double strand) [8-mer GTTTAAAA]”, for which the binding signal (PBM E-score (-0.5 to 0.5)) in data set [4] is 0.471.
Consider “GTTTAAAC (double strand) [8-mer GTTTAAAC]”, for which the binding signal (PBM E-score (-0.5 to 0.5)) is 0.481 in data set [4] and 0.494 in data set [7].
Turning to “GTTTTAAA (double strand) [8-mer GTTTTAAA]”, the binding signal (PBM E-score (-0.5 to 0.5)) in data set [4] is 0.478.
Turning to “TAAGCTTA (double strand) [8-mer TAAGCTTA]”, the binding signal (PBM E-score (-0.5 to 0.5)) amounted to 0.497 in [1] and 0.496 in [2].
The sequence “TACCTCAA (double strand) [8-mer TACCTCAA]” displayed a binding signal (PBM E-score (-0.5 to 0.5)) in [3] of 0.495.
“TGAGGTAA (double strand) [8-mer TGAGGTAA]” returned a binding signal (PBM E-score (-0.5 to 0.5)) in data set [3] of 0.49.
On to “TGCTAGCA (double strand) [8-mer TGCTAGCA]”, for which the binding signal (PBM E-score (-0.5 to 0.5)) in [1] worked out at 0.48.
Take “TTAGCTAA (double strand) [8-mer TTAGCTAA]”: the binding signal (PBM E-score (-0.5 to 0.5)) in data set [1] is 0.483.
“TTTAAAAA (double strand) [8-mer TTTAAAAA]” returned a binding signal (PBM E-score (-0.5 to 0.5)) in [4] of 0.48.
“TTTTAAAA (double strand) [8-mer TTTTAAAA]” gave a binding signal (PBM E-score (-0.5 to 0.5)) in [4] of 0.494.
